These are literature values, as cited in article PMC2910557.

Data set [1] concerns the target pHtrII (Natronomonas pharaonis) (UniProt P42259).
For data set [2] the target is unchanged. This is another data set of the same source.

Where two headings read alike, the source gives them in different places.

UniProt P42259, sequence (P42259 whole entry): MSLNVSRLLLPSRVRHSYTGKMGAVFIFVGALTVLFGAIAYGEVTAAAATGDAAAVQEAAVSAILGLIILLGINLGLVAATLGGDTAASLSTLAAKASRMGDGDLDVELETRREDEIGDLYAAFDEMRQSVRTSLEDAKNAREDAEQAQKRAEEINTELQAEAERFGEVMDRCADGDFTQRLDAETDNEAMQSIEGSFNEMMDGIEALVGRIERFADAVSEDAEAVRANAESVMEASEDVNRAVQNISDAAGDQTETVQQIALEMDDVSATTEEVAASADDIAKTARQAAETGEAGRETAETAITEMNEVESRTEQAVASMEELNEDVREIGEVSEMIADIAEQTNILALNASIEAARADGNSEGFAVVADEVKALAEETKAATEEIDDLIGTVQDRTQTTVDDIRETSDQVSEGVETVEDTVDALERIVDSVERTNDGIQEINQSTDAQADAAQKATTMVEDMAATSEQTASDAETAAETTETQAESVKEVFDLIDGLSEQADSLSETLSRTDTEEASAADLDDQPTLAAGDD

For the substance “ppR (sensory rhodopsin II) (from UniProt P42196)”, the Kd (usually the equilibrium constant for the complex coming apart) in data set [1] was 0.16 µM. As to “ppR M intermediate (ppRM) (from UniProt P42196)”, the Kd in data set [2] was 5 µM.
